Experimental findings from publication PMC2957810 (Traffic (Copenhagen, Denmark), 2009) are described below.

What all share (experiment): co-IP
Data set [1] has as its target Δ79-82ALP (dimerization mutant of pro-ALP) (S. cerevisiae) (UniProt P11491).
For data set [2], the target named is pro-ALP (yeast vacuolar alkaline phosphatase, pro-form) (S. cerevisiae) (UniProt P11491).
The data set “co-IP” concerns the molecule itself.

Regarding Erv26p (receptor), the percent of total Erv26p recovered in the IP stood at 1% in data set [1] and 2.5% in data set [2].

B1: Δ79-82ALP (dimerization mutant of pro-ALP) (natural protein, S. cerevisiae, UniProt P11491 1-566, looked up)
chain: MMTHTLPSEQTRLVPGSDSSSRPKKRRISKRSKIIVSTVVCIGLLLVLVQLAFPSSFALRSASHKKKNVIFFVTDGMGSMARSFNQHVNDLPIDDILTLDEHFIGSSRTRSSDSLVTDSAAGATAFACALKSYNGAIGVDPHHRPCGTVLEAAKLAGYLTGLVVTTRITDATPASFSSHVDYRWQEDLIATHQLGEYPLGRVVDLLMGGGRSHFYPQGEKASPYGHHGARKDGRDLIDEAQSNGWQYVGDRKNFDSLLKSHGENVTLPFLGLFADNDIPFEIDRDEKEYPSLKEQVKVALGALEKASNEDKDSNGFFLMVEGSRIDHAGHQNDPASQVREVLAFDEAFQYVLEFAENSDTETVLVSTSDHETGGLVTSRQVTASYPQYVWYPQVLANATHSGEFLKRKLVDFVHEHKGASSKIENFIKHEILEKDLGIYDYTDSDLETLIHLDDNANAIQDKLNDMVSFRAQIGWTTHGHSAVDVNIYAYANKKATWSYVLNNLQGNHENTEVGQFLENFLELNLNEVTDLIRDTKHTSDFDATEIASEVQHYDEYYHELTN
For the molecule B1, in “co-IP”, the “ratio of untagged to HA-tagged pro-ALP immunoprecipitated” value turned out to be 0.05.

B2: pro-ALP (yeast vacuolar alkaline phosphatase, pro-form) (natural protein, S. cerevisiae, UniProt P11491 1-566, looked up)
chain: MMTHTLPSEQTRLVPGSDSSSRPKKRRISKRSKIIVSTVVCIGLLLVLVQLAFPSSFALRSASHKKKNVIFFVTDGMGPASLSMARSFNQHVNDLPIDDILTLDEHFIGSSRTRSSDSLVTDSAAGATAFACALKSYNGAIGVDPHHRPCGTVLEAAKLAGYLTGLVVTTRITDATPASFSSHVDYRWQEDLIATHQLGEYPLGRVVDLLMGGGRSHFYPQGEKASPYGHHGARKDGRDLIDEAQSNGWQYVGDRKNFDSLLKSHGENVTLPFLGLFADNDIPFEIDRDEKEYPSLKEQVKVALGALEKASNEDKDSNGFFLMVEGSRIDHAGHQNDPASQVREVLAFDEAFQYVLEFAENSDTETVLVSTSDHETGGLVTSRQVTASYPQYVWYPQVLANATHSGEFLKRKLVDFVHEHKGASSKIENFIKHEILEKDLGIYDYTDSDLETLIHLDDNANAIQDKLNDMVSFRAQIGWTTHGHSAVDVNIYAYANKKATWSYVLNNLQGNHENTEVGQFLENFLELNLNEVTDLIRDTKHTSDFDATEIASEVQHYDEYYHELTN
Take B2: the “ratio of untagged to HA-tagged pro-ALP immunoprecipitated” value in the data set “co-IP” was 0.38.
